Measured values from publication PMC3352997.
Residue numbers refer to the chain shown, from its start. Like-named read-outs stand apart in the source and are kept apart here. Blank lines part the entries; values can stand above or below the binder they belong to.

Assays:
[1] = biological target: Factor Xa (activated factor X), human plasma (human); assay: titration of protease activity
[2] = biological target: Factor Xa (activated factor X), human plasma (human); assay: enzyme inhibition kinetics
[3] = biological target: Factor XIa (activated factor XI), human plasma (human); assay: titration of protease activity
[4] = biological target: Factor Xa (activated factor X), human plasma (human); assay: titration of protease activity; remark: listed apart in the source
[5] = biological target: Factor XIa (activated factor XI), human plasma (human); assay: titration of protease activity; remark: listed apart in the source
[6] = biological target: Factor Xa (activated factor X), human plasma (human); assay: titration of protease activity; remark: listed apart in the source
[7] = biological target: Factor XIa (activated factor XI), human plasma (human); assay: enzyme inhibition kinetics
[8] = biological target: Factor XIa (activated factor XI), human plasma (human); assay: enzyme inhibition kinetics; remark: listed apart in the source
[9] = biological target: Factor Xa (activated factor X), human plasma (human); assay: enzyme inhibition kinetics; remark: listed apart in the source
[10] = biological target: Factor Xa (activated factor X), human plasma (human); assay: enzyme inhibition kinetics; remark: listed apart in the source
[11] = biological target: FXa-R240A (heparin-binding exosite mutant of factor Xa) (UniProt P00742); assay: enzyme inhibition kinetics
[12] = biological target: FXa-R240A (heparin-binding exosite mutant of factor Xa) (UniProt P00742); assay: enzyme inhibition kinetics; remark: listed apart in the source

Sequence of Factor Xa (activated factor X), human plasma (human) (P00742 whole entry): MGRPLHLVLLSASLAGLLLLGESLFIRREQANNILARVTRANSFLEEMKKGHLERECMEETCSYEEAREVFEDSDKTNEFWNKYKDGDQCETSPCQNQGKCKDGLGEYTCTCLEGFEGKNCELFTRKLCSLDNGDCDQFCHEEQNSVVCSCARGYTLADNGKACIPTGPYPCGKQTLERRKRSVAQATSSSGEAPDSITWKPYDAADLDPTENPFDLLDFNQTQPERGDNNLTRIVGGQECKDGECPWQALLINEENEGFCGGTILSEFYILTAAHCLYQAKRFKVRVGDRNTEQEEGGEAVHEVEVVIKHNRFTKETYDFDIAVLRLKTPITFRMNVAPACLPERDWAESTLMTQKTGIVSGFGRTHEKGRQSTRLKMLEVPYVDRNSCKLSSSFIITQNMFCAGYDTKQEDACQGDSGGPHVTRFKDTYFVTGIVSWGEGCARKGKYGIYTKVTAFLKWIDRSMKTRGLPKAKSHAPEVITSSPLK

- SI (stoichiometry of inhibition) [1]: 4.5 mol I/mol E
- k2(app) (apparent second-order association rate constant of inhibition) [2]: 1.8e+06 M⁻¹ s⁻¹
- k2(app) x SI (second-order rate constant corrected for SI) [2]: 8.1e+06 M⁻¹ s⁻¹
- SI (stoichiometry of inhibition) [3]: 15.6 mol I/mol E
- SI (stoichiometry of inhibition) [4]: 7.3 mol I/mol E
- SI (stoichiometry of inhibition) [5]: 8.5 mol I/mol E
- SI (stoichiometry of inhibition) [6]: 7.4 mol I/mol E
- k2(app) (apparent second-order association rate constant of inhibition) [7]: 110000 M⁻¹ s⁻¹
- k2(app) x SI (second-order rate constant corrected for SI) [7]: 940000 M⁻¹ s⁻¹
- k2(app) (apparent second-order association rate constant of inhibition) [8]: 29000 M⁻¹ s⁻¹
- k2(app) x SI (second-order rate constant corrected for SI) [8]: 450000 M⁻¹ s⁻¹
- k2(app) (apparent second-order association rate constant of inhibition) [9]: 2100 M⁻¹ s⁻¹
- k2(app) x SI (second-order rate constant corrected for SI) [9]: 15000 M⁻¹ s⁻¹
B1: ZPI-des-NT (ZPI with the first 52 residues of the acidic N-terminal tail deleted) (domain or fragment)
chain: QLAKETSNFGFSLLRKISMRHDGNMVFSPFGMSLAMTGLMLGATGPTETQIKRGLHLQALKPTKPGLLPSLFKGLRETLSRNLELGLTQGSFAFIHKDFDVKETFFNLSKRYFDTECVPMNFRNASQAKRLMNHYINKETRGKIPKLFDEINPETKLILVDYILFKGKWLTPFDPVFTEVDTFHLDKYKTIKVPMMYGAGKFASTFDKNFRCHVLKLPYQGNATMLVVLMEKMGDHLALEDYLTTDLVETWLRNMKTRNMEVFFPKFKLDQKYEMHELLRQMGIRRIFSPFADLSELSATGRNLQVSRVLQRTVIEVDERGTEAVAGILSEITAYSMPPVIKVDRPFHFMIYEETSGMLLFLGRVVNPTLL

- fold decrease in reactivity in the presence of heparin [8]: < 2 fold
- fold decrease in reactivity in the presence of heparin [9]: < 2 fold
B4: ZPI single mutant with Lys-125 substituted with Ala (natural protein)
chain: LAPSPQSPETPAPQNQTSRVVQAPKEEEEDEQEASEEKASEEEKAWLMASRQQLAKETSNFGFSLLRKISMRHDGNMVFSPFGMSLAMTGLMLGATGPTETQIARGLHLQALKPTKPGLLPSLFKGLRETLSRNLELGLTQGSFAFIHKDFDVKETFFNLSKRYFDTECVPMNFRNASQAKRLMNHYINKETRGKIPKLFDEINPETKLILVDYILFKGKWLTPFDPVFTEVDTFHLDKYKTIKVPMMYGAGKFASTFDKNFRCHVLKLPYQGNATMLVVLMEKMGDHLALEDYLTTDLVETWLRNMKTRNMEVFFPKFKLDQKYEMHELLRQMGIRRIFSPFADLSELSATGRNLQVSRVLQRTVIEVDERGTEAVAGILSEITAYSMPPVIKVDRPFHFMIYEETSGMLLFLGRVVNPTLL

- fold decrease in reactivity in the presence of heparin [8]: < 2 fold
- fold decrease in reactivity in the presence of heparin [9]: < 2 fold
B5: ZPI single mutant with Lys-116 substituted with Ala (natural protein)
chain: B4 chain with A104K, K116A

- SI (stoichiometry of inhibition) [1]: 3.3 mol I/mol E
- k2(app) (apparent second-order association rate constant of inhibition) [2]: 2e+06 M⁻¹ s⁻¹
- k2(app) x SI (second-order rate constant corrected for SI) [2]: 6.6e+06 M⁻¹ s⁻¹
- SI (stoichiometry of inhibition) [3]: 13.3 mol I/mol E
- SI (stoichiometry of inhibition) [4]: 3.8 mol I/mol E
- SI (stoichiometry of inhibition) [5]: 5.2 mol I/mol E
- SI (stoichiometry of inhibition) [6]: 4.5 mol I/mol E
- k2(app) (apparent second-order association rate constant of inhibition) [10]: 95000 M⁻¹ s⁻¹
- k2(app) x SI (second-order rate constant corrected for SI) [10]: 360000 M⁻¹ s⁻¹
- k2(app) (apparent second-order association rate constant of inhibition) [7]: 260000 M⁻¹ s⁻¹
- k2(app) x SI (second-order rate constant corrected for SI) [7]: 1.4e+06 M⁻¹ s⁻¹
- k2(app) (apparent second-order association rate constant of inhibition) [8]: 41000 M⁻¹ s⁻¹
- k2(app) x SI (second-order rate constant corrected for SI) [8]: 540000 M⁻¹ s⁻¹
- k2(app) (apparent second-order association rate constant of inhibition) [9]: 2600 M⁻¹ s⁻¹
- k2(app) x SI (second-order rate constant corrected for SI) [9]: 12000 M⁻¹ s⁻¹
B7: ZPI-3A (ZPI with Lys-113, Lys-116 and Lys-125 substituted with Ala) (natural protein)
chain: B4 chain with A104K, K113A, K116A, K125A

Second part, the binder before the results:

B2: Protein Z-dependent protease inhibitor, wild type (natural protein)
chain: B4 chain with A104K
- SI (stoichiometry of inhibition) [1]: 2.8 mol I/mol E
- k2(app) (apparent second-order association rate constant of inhibition) [2]: 2.5e+06 M⁻¹ s⁻¹
- SI (stoichiometry of inhibition) [3]: 10.2 mol I/mol E
- SI (stoichiometry of inhibition) [4]: 3.8 mol I/mol E
- SI (stoichiometry of inhibition) [5]: 4.3 mol I/mol E
- SI (stoichiometry of inhibition) [6]: 4.1 mol I/mol E
- k2(app) (apparent second-order association rate constant of inhibition) [10]: 180000 M⁻¹ s⁻¹
- k2(app) (apparent second-order association rate constant of inhibition) [7]: 420000 M⁻¹ s⁻¹
- k2 (second-order association rate constant of inhibition) [11]: 30000 M⁻¹ s⁻¹
- k2 (second-order association rate constant of inhibition) [12]: 2800 M⁻¹ s⁻¹
- k2(app) (apparent second-order association rate constant of inhibition) [8]: 58000 M⁻¹ s⁻¹
- k2(app) (apparent second-order association rate constant of inhibition) [9]: 3400 M⁻¹ s⁻¹

B3: ZPI single mutant with Arg-128 substituted with Ala (natural protein)
chain: B4 chain with A104K, R128A
- fold decrease in reactivity in the presence of heparin [8]: < 2 fold
- fold decrease in reactivity in the presence of heparin [9]: < 2 fold

B6: ZPI single mutant with Lys-113 substituted with Ala (natural protein)
chain: B4 chain with A104K, K113A
- fold decrease in reactivity in the presence of heparin [8]: < 2 fold
- fold decrease in reactivity in the presence of heparin [9]: < 2 fold
